Data taken from PMC8528048, “Chemoselective cysteine or disulfide modification via single atom substitution in chloromethyl acryl reagents” (Chemical Science, 2021).

Test system: Micrococcus lysodeikticus lyophilized cell suspensions
Assay: Lysozyme enzymatic assay: absorbance change at 450 nm of cell suspensions
Type: biochemical
Details: 0.01 mg/mL enzyme, 10 μL into 250 μL cell suspension 0.32 mg/mL, 66 mM phosphate buffer pH 6.2; A450 every minute for 15 minutes; ratio of slopes minus blank
Method: Lysozyme is an antimicrobial enzyme that is capable of hydrolyzing the 1,4-beta-linkages in the peptidoglycan of Gram-positive bacterial cell walls, thus leading to the lysis of bacteria (Fig. 8a). Therefore, the catalytic activity of modified lysozyme was assessed by investigation of the absorbance change at 450 nm of Micrococcus lysodeikticus lyophilized cell suspensions over time, where the activity of the modified lysozyme is proportional to their capability to hydrolyze the bacterial cell walls.[45] In comparison to native lysozyme, the disulfide-modified lysozyme Ly-PEG-Tz retained 86% of its activity (Fig. 8b, calculation details shown in Section 8.3 in ESI ^†).
Fig. 8 (a) The hydrolysis of 1,4-beta-linkages between N-acetyl-D-glucosamine (NAG) and N-acetylmuramic acid (NAM) residues in peptidoglycans of Gram-positive bacterial cell walls. The absorbance of the cell suspension at 450 nm was monitored to evaluate their catalytic activity and the rate of absorbance decrease was proportional to its activity. […]
The lysozyme enzymatic assay was performed according to the protocol form Sigma Aldrich’s technical bulletin. […] 250 μL of the cell suspensions was added to the 96-well plate and the absorbance was measured at 450 nm. According to the obtained absorbance, the concentration was carefully adjusted to ensure the absorbance at 450 nm between 0.6 and 0.7. […]

| Substance | catalytic activity retained in comparison to native lysozyme |
| --- | --- |
| Ly-PEG5-Tz: lysozyme statistically modified at lysines with Tz-PEG5-NHS; mixture of no, single and dual modification | Total loss of the activity |
| Ly-PEG-Tz: lysozyme (hen egg white) modified at the C6–C127 disulfide with PEG-tetrazine via compound 8 | 86% |
